The text below walks through data of patent publication US20260009052, “CAS12 PROTEINS AND USES THEREOF” (GUANGZHOU REFORGENE MEDICINE CO., LTD., published 2026).

Where a chain is given by its changes, count along the chain named.

Series [1] deals with T1, C12-279 Mut-02 (synthetic construct, Q186R,D352R).
T1 chain: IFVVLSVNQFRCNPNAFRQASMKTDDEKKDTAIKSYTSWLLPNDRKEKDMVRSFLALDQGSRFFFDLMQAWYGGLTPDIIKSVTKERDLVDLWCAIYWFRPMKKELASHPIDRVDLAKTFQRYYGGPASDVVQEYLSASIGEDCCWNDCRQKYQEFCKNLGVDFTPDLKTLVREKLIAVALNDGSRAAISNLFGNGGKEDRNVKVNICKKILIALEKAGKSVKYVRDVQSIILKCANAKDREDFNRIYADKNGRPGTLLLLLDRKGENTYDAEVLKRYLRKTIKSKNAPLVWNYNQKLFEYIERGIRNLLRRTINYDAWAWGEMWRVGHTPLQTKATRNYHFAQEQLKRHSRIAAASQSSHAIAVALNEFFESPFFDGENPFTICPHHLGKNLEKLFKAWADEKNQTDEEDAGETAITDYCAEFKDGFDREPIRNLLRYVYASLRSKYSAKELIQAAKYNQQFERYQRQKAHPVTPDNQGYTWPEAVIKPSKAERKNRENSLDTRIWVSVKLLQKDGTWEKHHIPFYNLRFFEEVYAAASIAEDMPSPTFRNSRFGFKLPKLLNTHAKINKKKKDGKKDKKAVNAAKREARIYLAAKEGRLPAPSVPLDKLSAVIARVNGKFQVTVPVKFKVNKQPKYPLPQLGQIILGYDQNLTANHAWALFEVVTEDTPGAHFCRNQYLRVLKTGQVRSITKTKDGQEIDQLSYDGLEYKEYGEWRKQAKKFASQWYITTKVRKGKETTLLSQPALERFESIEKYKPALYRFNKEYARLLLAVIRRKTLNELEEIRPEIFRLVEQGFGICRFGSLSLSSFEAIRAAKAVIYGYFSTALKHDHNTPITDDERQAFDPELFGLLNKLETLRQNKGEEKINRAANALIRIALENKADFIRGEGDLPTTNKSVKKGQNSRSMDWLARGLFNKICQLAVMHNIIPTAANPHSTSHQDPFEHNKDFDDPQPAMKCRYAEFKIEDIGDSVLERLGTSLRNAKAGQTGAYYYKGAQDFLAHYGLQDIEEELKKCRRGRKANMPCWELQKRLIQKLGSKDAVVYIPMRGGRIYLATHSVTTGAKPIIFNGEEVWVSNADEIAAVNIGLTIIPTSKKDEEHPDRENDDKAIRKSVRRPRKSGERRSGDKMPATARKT
Description: cell_activity; PAM TTG; +/-0.25. As for the experimental part: (§1) Transfection: transfection was performed 12-14 h after plating. 1.5 μL PEI (Yeasen Biotechnology, 40815ES03, Polyethylenimine Linear (PEI) MW25000) and 500 ng mutation clone plasmid were added to 100 μL Opti-MEM per well of the 24-well plate, mixed, and added to the NAAN cell line for cell transfection after placing at room temperature for 20 min. After overnight transfection, a fresh culture medium was replaced, and the culture was continued for 72 h, followed by flow cytometry. Editing efficiencies of different mutant clones were characterized by the proportion of GFP-positive cells.
(§2) Editing efficiency of some selected mutants was tested in Reporter3 cell line using the same manner as described for the NAAN reporter system, except that the cell line was changed from NAAN cell line to Reporter3 cell line.

The target of series [2] is T2, C12-279 D352R/Q186R/H350R (synthetic construct, Q186R,H350R,D352R).
T2 chain: T1 chain with H350R
Description: cell_activity; PAM TTG. The method, then: as §1, §2

B1: C12-279 Reporter3 sgRNA ; Reporter3 target (ssRNA ; dsDNA)
RNA: GUAAUGCGUCUCCCAUUGACGCCUCACCUCGCGACGCAAUGAUG
DNA 1: CTCACCTCGCGACGCAATGATG
DNA 2: CATCATTGCGTCGCGAGGTGAG
For B1, the binding signal in series [1] is 1.39 fold of C12-279; in series [2], 2.11 fold of C12-279.
